# In the supplement of paper PMC10065799, “High-throughput profiling of sequence recognition by tyrosine kinases and SH2 domains using bacterial peptide display” (eLife, 2023):
# Columns and labels:
# [1] = test system: c-Abl (mouse); experiment: phosphorylation enrichment, bacterial display (enrichment ratio); higher = better substrate or ligand; peptides without Tyr show the background
# [2] = biological target: FGFR3 (UniProt P22607); experiment: as above
# [3] = biological target: Fyn (UniProt P06241); experiment: as above
# [4] = biological target: Fes (UniProt P07332); experiment: as above
# [5] = test system: Fer (mouse); experiment: as above
# [6] = biological target: FGFR1 (UniProt P11362); experiment: as above
# FGFR1, sequence (P11362 whole entry, looked up): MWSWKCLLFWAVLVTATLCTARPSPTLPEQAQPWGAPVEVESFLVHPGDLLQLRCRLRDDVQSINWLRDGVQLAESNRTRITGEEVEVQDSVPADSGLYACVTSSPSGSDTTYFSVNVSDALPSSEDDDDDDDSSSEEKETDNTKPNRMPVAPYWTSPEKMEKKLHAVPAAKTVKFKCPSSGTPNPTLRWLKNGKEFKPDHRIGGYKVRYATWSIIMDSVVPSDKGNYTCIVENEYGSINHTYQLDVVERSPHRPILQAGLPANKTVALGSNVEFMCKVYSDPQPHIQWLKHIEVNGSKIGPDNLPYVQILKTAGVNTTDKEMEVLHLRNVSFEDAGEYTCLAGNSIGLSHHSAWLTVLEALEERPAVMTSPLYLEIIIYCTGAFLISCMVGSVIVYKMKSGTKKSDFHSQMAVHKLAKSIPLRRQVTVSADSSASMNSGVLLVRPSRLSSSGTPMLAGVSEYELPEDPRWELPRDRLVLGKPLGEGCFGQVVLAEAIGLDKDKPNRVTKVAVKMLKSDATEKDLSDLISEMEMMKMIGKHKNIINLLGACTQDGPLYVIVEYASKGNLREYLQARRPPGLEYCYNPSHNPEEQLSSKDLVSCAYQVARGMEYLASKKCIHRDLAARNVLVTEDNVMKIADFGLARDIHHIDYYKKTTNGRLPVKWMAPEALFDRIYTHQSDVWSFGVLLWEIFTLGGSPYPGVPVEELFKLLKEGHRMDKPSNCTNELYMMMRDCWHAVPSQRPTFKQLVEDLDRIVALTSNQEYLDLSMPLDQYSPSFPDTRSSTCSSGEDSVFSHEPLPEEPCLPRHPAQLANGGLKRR
# [7] = biological target: EPHB2 (UniProt P29323); experiment: as above
# EPHB2, sequence (P29323 whole entry, looked up): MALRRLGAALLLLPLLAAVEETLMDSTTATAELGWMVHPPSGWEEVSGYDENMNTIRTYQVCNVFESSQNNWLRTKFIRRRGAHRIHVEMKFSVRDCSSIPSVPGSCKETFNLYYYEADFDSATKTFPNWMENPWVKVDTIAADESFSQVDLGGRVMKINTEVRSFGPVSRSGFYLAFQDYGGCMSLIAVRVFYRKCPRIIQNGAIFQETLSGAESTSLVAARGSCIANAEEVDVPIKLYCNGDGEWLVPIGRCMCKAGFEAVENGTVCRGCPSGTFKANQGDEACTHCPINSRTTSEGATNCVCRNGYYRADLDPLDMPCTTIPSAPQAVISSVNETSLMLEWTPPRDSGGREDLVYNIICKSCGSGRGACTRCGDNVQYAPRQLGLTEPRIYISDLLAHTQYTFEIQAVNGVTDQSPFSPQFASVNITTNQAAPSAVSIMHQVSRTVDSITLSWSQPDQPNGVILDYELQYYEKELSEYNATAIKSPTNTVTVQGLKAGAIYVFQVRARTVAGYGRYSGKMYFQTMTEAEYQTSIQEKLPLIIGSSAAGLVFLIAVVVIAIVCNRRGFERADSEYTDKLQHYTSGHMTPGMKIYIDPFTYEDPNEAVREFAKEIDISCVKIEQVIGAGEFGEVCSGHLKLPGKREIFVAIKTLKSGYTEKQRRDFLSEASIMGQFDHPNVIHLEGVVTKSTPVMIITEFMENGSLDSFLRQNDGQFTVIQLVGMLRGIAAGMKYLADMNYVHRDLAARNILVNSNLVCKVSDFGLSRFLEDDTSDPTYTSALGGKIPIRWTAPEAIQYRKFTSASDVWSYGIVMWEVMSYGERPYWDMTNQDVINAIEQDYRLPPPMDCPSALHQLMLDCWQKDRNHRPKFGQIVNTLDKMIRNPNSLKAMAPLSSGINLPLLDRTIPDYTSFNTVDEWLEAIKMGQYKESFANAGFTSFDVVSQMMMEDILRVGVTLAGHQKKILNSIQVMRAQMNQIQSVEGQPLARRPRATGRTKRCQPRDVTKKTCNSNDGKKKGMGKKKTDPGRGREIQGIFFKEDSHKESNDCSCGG
# [8] = biological target: Hck (UniProt P08631); experiment: as above
# [9] = test system: AncSZ; experiment: as above
# [10] = test system: c-Src; experiment: as above
# [11] = biological target: EPHB1 (UniProt P54762); experiment: as above
# EPHB1, sequence (P54762 whole entry, looked up): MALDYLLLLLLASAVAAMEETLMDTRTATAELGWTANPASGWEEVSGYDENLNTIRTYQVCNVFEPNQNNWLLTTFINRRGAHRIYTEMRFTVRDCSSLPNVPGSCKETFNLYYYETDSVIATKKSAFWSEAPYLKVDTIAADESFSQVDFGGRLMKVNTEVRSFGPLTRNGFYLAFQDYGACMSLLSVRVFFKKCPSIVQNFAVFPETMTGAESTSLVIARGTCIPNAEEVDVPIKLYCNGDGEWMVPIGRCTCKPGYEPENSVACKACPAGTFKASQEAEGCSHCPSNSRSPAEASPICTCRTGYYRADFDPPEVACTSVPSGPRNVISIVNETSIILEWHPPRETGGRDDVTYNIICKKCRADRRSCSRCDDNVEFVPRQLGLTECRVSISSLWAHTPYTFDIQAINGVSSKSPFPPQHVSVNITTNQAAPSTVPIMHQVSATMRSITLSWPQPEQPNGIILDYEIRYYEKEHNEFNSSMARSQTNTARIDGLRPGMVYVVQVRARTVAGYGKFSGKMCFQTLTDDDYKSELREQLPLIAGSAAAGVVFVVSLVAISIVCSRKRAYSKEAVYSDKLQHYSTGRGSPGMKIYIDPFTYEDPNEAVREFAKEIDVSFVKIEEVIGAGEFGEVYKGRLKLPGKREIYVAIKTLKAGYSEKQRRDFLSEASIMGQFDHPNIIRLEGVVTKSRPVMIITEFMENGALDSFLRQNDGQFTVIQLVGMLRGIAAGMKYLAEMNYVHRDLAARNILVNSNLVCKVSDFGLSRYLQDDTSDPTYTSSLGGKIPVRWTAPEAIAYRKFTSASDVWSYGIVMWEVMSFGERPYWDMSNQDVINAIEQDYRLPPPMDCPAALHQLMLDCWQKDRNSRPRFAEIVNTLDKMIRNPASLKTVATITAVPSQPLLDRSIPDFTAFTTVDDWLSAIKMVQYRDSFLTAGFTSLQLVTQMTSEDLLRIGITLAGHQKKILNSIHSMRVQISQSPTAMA
# [12] = biological target: MERTK (UniProt Q12866); experiment: as above
# [13] = biological target: Jak2 (UniProt O60674); experiment: as above
# Jak2, sequence (O60674 whole entry, looked up): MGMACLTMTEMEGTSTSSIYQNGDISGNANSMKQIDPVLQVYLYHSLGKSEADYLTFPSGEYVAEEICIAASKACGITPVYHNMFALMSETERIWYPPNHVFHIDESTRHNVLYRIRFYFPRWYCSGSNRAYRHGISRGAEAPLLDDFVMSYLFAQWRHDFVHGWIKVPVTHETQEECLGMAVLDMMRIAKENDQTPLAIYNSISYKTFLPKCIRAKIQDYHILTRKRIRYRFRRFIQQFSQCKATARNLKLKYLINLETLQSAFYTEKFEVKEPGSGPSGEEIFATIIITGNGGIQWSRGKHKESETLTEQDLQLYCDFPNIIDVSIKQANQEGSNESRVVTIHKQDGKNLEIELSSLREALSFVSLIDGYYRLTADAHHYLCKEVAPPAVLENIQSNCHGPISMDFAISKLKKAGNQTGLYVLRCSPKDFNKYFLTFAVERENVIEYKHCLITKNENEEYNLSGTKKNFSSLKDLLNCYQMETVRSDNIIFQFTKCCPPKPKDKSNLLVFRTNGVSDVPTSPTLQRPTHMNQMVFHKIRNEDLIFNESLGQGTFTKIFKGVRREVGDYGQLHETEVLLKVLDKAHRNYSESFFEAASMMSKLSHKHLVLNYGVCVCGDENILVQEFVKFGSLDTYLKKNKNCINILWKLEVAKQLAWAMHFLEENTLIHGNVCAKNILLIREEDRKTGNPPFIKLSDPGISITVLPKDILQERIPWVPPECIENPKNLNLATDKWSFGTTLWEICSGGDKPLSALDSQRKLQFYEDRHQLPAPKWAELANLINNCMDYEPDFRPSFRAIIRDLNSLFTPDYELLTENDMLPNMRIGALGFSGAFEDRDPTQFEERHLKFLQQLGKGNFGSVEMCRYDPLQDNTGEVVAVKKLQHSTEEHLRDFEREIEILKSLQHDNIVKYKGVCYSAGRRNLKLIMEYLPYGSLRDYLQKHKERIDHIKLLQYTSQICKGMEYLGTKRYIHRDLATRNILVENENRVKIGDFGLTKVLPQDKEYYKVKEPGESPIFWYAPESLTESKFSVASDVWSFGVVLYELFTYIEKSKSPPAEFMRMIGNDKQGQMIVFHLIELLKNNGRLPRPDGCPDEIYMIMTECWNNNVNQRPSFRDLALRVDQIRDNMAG
# [14] = biological target: c-Src SH2; experiment: SH2 binding enrichment of the phosphorylated peptide, bacterial display (enrichment ratio); higher = better substrate or ligand; peptides without Tyr show the background
# [15] = biological target: Grb2 SH2 (UniProt P62993); experiment: as above
# [16] = biological target: SHP2-C SH2; experiment: as above
# 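For SH2 binding enrichment of the phosphorylated peptide, bacterial display in this document: peptide library displayed on the E. coli surface as eCPX fusions, selected cells deep-sequenced, score is each peptide's frequency after selection divided by its frequency in the input.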
# 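For phosphorylation enrichment, bacterial display in this document: 11-residue human phosphosite peptides and single-mutation variants displayed on the E. coli surface, counted by deep sequencing, each peptide's frequency after selection divided by its frequency in the unselected input library; frequency after pTyr selection over input frequency; kinase dosed for 20-30% of maximal phosphorylation in three min.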
# FGFR3, sequence (P22607 whole entry, looked up): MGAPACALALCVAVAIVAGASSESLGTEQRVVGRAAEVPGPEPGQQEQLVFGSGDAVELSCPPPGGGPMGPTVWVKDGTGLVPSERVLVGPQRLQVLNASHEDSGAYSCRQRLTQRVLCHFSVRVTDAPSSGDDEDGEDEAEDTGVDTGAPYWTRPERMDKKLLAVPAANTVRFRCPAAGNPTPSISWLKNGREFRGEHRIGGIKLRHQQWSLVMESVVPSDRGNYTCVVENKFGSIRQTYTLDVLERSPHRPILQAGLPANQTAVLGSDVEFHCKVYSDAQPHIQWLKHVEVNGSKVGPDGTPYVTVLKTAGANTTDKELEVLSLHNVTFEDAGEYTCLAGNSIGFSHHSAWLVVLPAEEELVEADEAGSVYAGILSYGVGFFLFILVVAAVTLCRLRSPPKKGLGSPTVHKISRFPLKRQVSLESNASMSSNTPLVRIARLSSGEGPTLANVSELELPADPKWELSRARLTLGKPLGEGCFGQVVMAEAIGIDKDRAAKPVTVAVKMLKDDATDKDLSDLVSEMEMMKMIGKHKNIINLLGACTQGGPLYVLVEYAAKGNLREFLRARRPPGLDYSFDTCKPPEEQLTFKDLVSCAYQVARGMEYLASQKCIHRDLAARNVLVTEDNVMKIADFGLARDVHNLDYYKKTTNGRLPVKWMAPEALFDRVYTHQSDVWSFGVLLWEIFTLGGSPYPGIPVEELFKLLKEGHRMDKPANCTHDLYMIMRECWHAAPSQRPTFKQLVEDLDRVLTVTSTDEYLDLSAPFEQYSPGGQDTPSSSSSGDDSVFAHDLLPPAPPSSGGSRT
Sequence,SH2 binding enrichment [14],SH2 binding enrichment [15],SH2 binding enrichment [16],phosphorylation enrichment [1],phosphorylation enrichment [2],phosphorylation enrichment [3],phosphorylation enrichment [4],phosphorylation enrichment [5],phosphorylation enrichment [6],phosphorylation enrichment [7],phosphorylation enrichment [8],phosphorylation enrichment [9],phosphorylation enrichment [10],phosphorylation enrichment [11],phosphorylation enrichment [12],phosphorylation enrichment [13]
LVPAWYIGFLC [KCNQ2_Y237_T234P],0.543,0.968,0.844,0.804,0.812,0.487,1.28,0.56,0.502,0.625,0.516,1.25,0.51,0.599,0.361,1.1
EIRTQYEVMAS [GFAP_Y242_A244V],6.97,0.767,0.89,0.615,0.635,0.484,0.839,0.49,0.493,0.476,0.49,0.74,0.437,0.445,0.378,1.07
PIFEGYALPHA [ACTA1_Y171_YF],4.62,0.877,0.769,2.44,0.665,0.536,0.778,0.49,0.536,0.574,0.541,0.82,0.562,0.546,0.807,0.717
IIGNGYYFHVF [MYBPC3_Y1135_R1138H],0.542,0.834,0.81,0.667,0.803,0.349,1.22,0.491,0.587,0.559,0.396,0.946,0.362,0.518,0.288,1.19
ADELEYSRTGL [MMUT_Y287_G284E],0.457,0.747,0.623,0.644,0.645,0.482,0.972,0.437,0.402,0.568,0.517,1.11,0.464,0.596,0.407,0.741
IVAREYFSDAD [CAMK2A_Y106_E109D_YF],0.467,0.8,0.589,0.8,0.583,0.378,0.922,0.418,0.461,0.491,0.415,0.744,0.438,0.48,0.378,0.793
CPPKVYELMRA [ABL2_Y515],1.53,0.944,0.693,0.585,0.679,1.13,1.04,6.41,0.73,2.41,1.81,0.662,1.33,8.38,3.81,0.53
KAIMTYVFSFF [ACTN4_Y260_S262F_YF],0.888,1.26,1.19,0.526,0.725,0.464,0.945,0.454,0.443,0.461,0.502,0.989,0.425,0.553,0.431,0.698
QEIATYRRLRE [KRT17_Y384_L388R],0.441,0.75,0.478,0.597,0.933,0.61,0.936,0.508,0.77,0.557,0.779,0.734,0.537,0.64,0.798,0.558
KKHFSYAWPFY [BRDT_Y291],1.52,1.73,1.46,0.493,0.564,0.456,0.965,0.385,0.495,0.428,0.425,1,0.375,0.622,1.22,0.647

# Continued, in another order:
SH2 binding enrichment [14],SH2 binding enrichment [15],SH2 binding enrichment [16],Sequence,phosphorylation enrichment [1],phosphorylation enrichment [2],phosphorylation enrichment [3],phosphorylation enrichment [4],phosphorylation enrichment [5],phosphorylation enrichment [6],phosphorylation enrichment [7],phosphorylation enrichment [8],phosphorylation enrichment [9],phosphorylation enrichment [10],phosphorylation enrichment [11],phosphorylation enrichment [12],phosphorylation enrichment [13]
2.79,15.4,2.03,RLGNQYVNVMN [SLC3A1_Y461],0.524,0.991,0.471,0.727,0.513,0.541,0.59,0.446,0.619,0.508,2.21,0.352,0.64
0.874,1.01,0.716,PHMQTYEVDLN [SDHB_Y61],0.649,0.755,0.906,1.29,1.02,0.61,0.797,0.804,1.17,1.04,0.978,0.51,1.12
0.477,0.786,0.591,LRFKQYLRNPP [SHC1_Y315],0.847,0.767,0.551,1.11,0.623,0.865,1.8,1.04,0.957,0.642,0.562,0.564,1.17
0.509,0.751,0.559,DTYDPYLDVAL [USP36_Y268],0.859,0.853,1.19,1.32,0.661,0.742,0.776,0.846,1.55,1.43,0.805,0.412,1.1
0.485,0.835,0.43,NSNSDYVDVLP [SH2D1B_Y127],0.743,2.95,0.628,1.33,0.884,3.73,2.82,0.735,2.46,0.598,4.08,0.54,1.11
0.594,0.852,0.543,AAQNCYKVTNG [TPI1_Y105],0.738,0.536,0.411,0.905,0.391,0.523,0.421,0.408,0.725,0.356,0.37,0.411,0.665
0.409,0.779,0.591,GGFTCYCDGKK [PROS1_Y266_YF],0.758,0.865,0.485,1.19,0.511,0.457,0.515,0.484,1.12,0.354,0.608,0.419,0.998
